Source: paper PMC7935764 (Structure (London, England : 1993), 2020)

Assays:
[1] = target: IN CCD^F185K (HIV-1 (NL4-3)); test: AUC
[2] = target: HIV integrase CTD CTD (Human immunodeficiency virus 1) (UniProt O93215); test: NMR; conditions: cited from earlier work
[3] = target: IN CCD^F185K (HIV-1 (NL4-3)); test: SEC-MALS + AUC + other: SEC-SAXS
[4] = target: HIV-1 integrase IN^F185H,L242A (HIV-1 (NL4-3)); test: AUC
[5] = target: HIV-1 integrase IN^F185H,L242A (HIV-1 (NL4-3)); test: SEC-MALS
SEC-MALS = target: the molecule itself; test: SEC-MALS
SEC-SAXS = target: the molecule itself; test: SEC-SAXS

Molecule: HFS-IN(CTD)^220-280(L242A) (from UniProt P12497 221-281) (domain or fragment)
- KD without BI-224436 [1]: > 1000 µM

Molecule: HIV integrase CTD CTD (from UniProt O93215)
- Kd [2]: 1 µM

Molecule: IN CCD^F185K (domain or fragment)
- stoichiometry N [3]: 2

Molecule: HIV-1 integrase IN^F185H,L242A (enzyme)
- stoichiometry N [4]: 2
- stoichiometry N [5]: 2

B1: His6-FLAG-SUMO (HFS)-tagged CTD^220-270, wild type (domain or fragment)
chain: IQNFRVYYRDSRDPVWKGPAKLLWKGEGAVVIQDNSDIKVVPRRKAKIIRD
- stoichiometry N (SEC-MALS): 2

B2: CTD^220-270 (domain or fragment)
chain: B1 chain
- stoichiometry N (SEC-SAXS): 2
